{"source": "patent US20100093076A1", "about": "“SOLUBLE IL-27 RECEPTOR” (priority 2006, published 2010)", "key": {"[1]": {"molecular_target": "human IL-27 (single-chain molecule: EBI3 connected by its C-terminus to the N-terminus of IL-27 p28 via a polypeptide linker, amino-terminal peptide tag) (human) (UniProt Q14213)", "assay": "cell-based or functional assay"}, "[2]": {"molecular_target": "mouse IL-27 (single-chain molecule: EBI3 connected by its C-terminus to the N-terminus of IL-27 p28 via a polypeptide linker, amino-terminal peptide tag) (mouse) (UniProt O35228)", "assay": "cell-based or functional assay"}, "[3]": {"molecular_target": "mouse IL-27 (single-chain molecule: EBI3 connected by its C-terminus to the N-terminus of IL-27 p28 via a polypeptide linker, amino-terminal peptide tag) (mouse) (UniProt O35228)", "assay": "SPR (BIACORE 3000), receptor captured by anti-mouse Fc antibody on CM5 chip, ligand as analyte, 1:1 model with mass transport"}, "[4]": {"molecular_target": "human IL-27 (single-chain molecule: EBI3 connected by its C-terminus to the N-terminus of IL-27 p28 via a polypeptide linker, amino-terminal peptide tag) (human) (UniProt Q14213)", "assay": "SPR (BIACORE 3000), receptor amine-coupled to CM5 chip, ligand as analyte, 1:1 model with mass transport"}, "[5]": {"molecular_target": "mouse IL-27 (single-chain molecule: EBI3 connected by its C-terminus to the N-terminus of IL-27 p28 via a polypeptide linker, amino-terminal peptide tag) (mouse) (UniProt O35228)", "assay": "SPR (BIACORE 3000), receptor amine-coupled to CM5 chip, ligand as analyte, 1:1 model with mass transport"}}, "note": "pKd: −log10 of the molar value."}
{"substance": "IL27RAm(mFc1), mouse IL27RA-Fc fusion polypeptide (extracellular domain of mouse IL27RA and wild type BALB/c mouse gamma2a constant region Fc tag)", "values": [{"measurement": "IC50 (nM), inhibition of IL-27-induced STAT3 phosphorylation, mouse spleens, huIL-27 at EC90 2 nM", "setting": "[1]", "value": 9.3, "unit": "nM"}, {"measurement": "IC50 (nM), inhibition of IL-27-induced STAT3 phosphorylation, total human PBMCs, huIL-27 at EC90 2 nM", "setting": "[1]", "value": 1370, "unit": "nM"}, {"measurement": "IC50 (nM), inhibition of IL-27-induced STAT3 phosphorylation, mouse spleens, muIL-27 at EC90 0.2 nM", "setting": "[2]", "value": 0.18, "unit": "nM"}, {"measurement": "IC50 (nM), inhibition of IL-27-induced STAT3 phosphorylation, total human PBMCs, muIL-27 at EC90 2 nM", "setting": "[2]", "value": 4.83, "unit": "nM"}, {"measurement": "IL-2 concentration (pg/ml), naive mouse CD4 T cells, 48 hr, mIL-27RA 0 ug/ml (zero point, no soluble receptor present) + mouse IL-27 10 ng/ml", "setting": "[2]", "value": 1260, "unit": "pg/mL"}, {"measurement": "IL-2 concentration (pg/ml), naive mouse CD4 T cells, 48 hr, mIL-27RA 5 ug/ml + mouse IL-27 10 ng/ml", "setting": "[2]", "value": 4020, "unit": "pg/mL"}, {"measurement": "IL-2 concentration (pg/ml), naive mouse CD4 T cells, 48 hr, mIL-27RA 10 ug/ml (second row) + mouse IL-27 10 ng/ml", "setting": "[2]", "value": 4920, "unit": "pg/mL"}, {"measurement": "IL-2 concentration (pg/ml), naive mouse CD4 T cells, 48 hr, mIL-27RA 10 ug/ml + mouse IL-27 10 ng/ml", "setting": "[2]", "value": 5220, "unit": "pg/mL"}, {"measurement": "IL-2 concentration (pg/ml), naive mouse CD4 T cells, 72 hr, mIL-27RA 0 ug/ml (zero point, no soluble receptor present) + mouse IL-27 10 ng/ml", "setting": "[2]", "value": 234, "unit": "pg/mL"}, {"measurement": "IL-2 concentration (pg/ml), naive mouse CD4 T cells, 72 hr, mIL-27RA 5 ug/ml + mouse IL-27 10 ng/ml", "setting": "[2]", "value": 5740, "unit": "pg/mL"}, {"measurement": "IL-2 concentration (pg/ml), naive mouse CD4 T cells, 72 hr, mIL-27RA 10 ug/ml (second row) + mouse IL-27 10 ng/ml", "setting": "[2]", "value": 12200, "unit": "pg/mL"}, {"measurement": "IL-2 concentration (pg/ml), naive mouse CD4 T cells, 72 hr, mIL-27RA 10 ug/ml + mouse IL-27 10 ng/ml", "setting": "[2]", "value": 6700, "unit": "pg/mL"}, {"measurement": "block of the ability of mouse IL-27 to inhibit IL-2 production by naive CD4 T cells", "setting": "[2]", "value": 50, "unit": "%"}, {"measurement": "pKd", "setting": "[3]", "value": 9.92}, {"measurement": "koff", "setting": "[3]", "value": 0.0012, "unit": "s⁻¹"}, {"measurement": "kon", "setting": "[3]", "value": "1e+07", "unit": "M⁻¹ s⁻¹"}]}
{"substance": "human IL27RA-Fc5 fusion protein (Fc fusion)", "values": [{"measurement": "IC50 (nM), inhibition of IL-27-induced STAT3 phosphorylation, mouse spleens, huIL-27 at EC90 2 nM", "setting": "[1]", "value": 0.32, "unit": "nM"}, {"measurement": "IC50 (nM), inhibition of IL-27-induced STAT3 phosphorylation, total human PBMCs, huIL-27 at EC90 2 nM", "setting": "[1]", "value": 0.95, "unit": "nM"}, {"measurement": "IC50 (nM), inhibition of IL-27-induced STAT3 phosphorylation, mouse spleens, muIL-27 at EC90 0.2 nM", "setting": "[2]", "value": 0.14, "unit": "nM"}, {"measurement": "IC50 (nM), inhibition of IL-27-induced STAT3 phosphorylation, total human PBMCs, muIL-27 at EC90 2 nM", "setting": "[2]", "value": 2.97, "unit": "nM"}, {"measurement": "IL-2 concentration (pg/ml), naive mouse CD4 T cells, 48 hr, hIL-27RA 0 ug/ml (zero point, no soluble receptor present) + mouse IL-27 10 ng/ml", "setting": "[2]", "value": 1780, "unit": "pg/mL"}, {"measurement": "IL-2 concentration (pg/ml), naive mouse CD4 T cells, 48 hr, hIL-27RA 5 ug/ml + mouse IL-27 10 ng/ml", "setting": "[2]", "value": 5780, "unit": "pg/mL"}, {"measurement": "IL-2 concentration (pg/ml), naive mouse CD4 T cells, 48 hr, hIL-27RA 10 ug/ml (second row) + mouse IL-27 10 ng/ml", "setting": "[2]", "value": 5330, "unit": "pg/mL"}, {"measurement": "IL-2 concentration (pg/ml), naive mouse CD4 T cells, 48 hr, hIL-27RA 10 ug/ml + mouse IL-27 10 ng/ml", "setting": "[2]", "value": 5770, "unit": "pg/mL"}, {"measurement": "IL-2 concentration (pg/ml), naive mouse CD4 T cells, 72 hr, hIL-27RA 0 ug/ml (zero point, no soluble receptor present) + mouse IL-27 10 ng/ml", "setting": "[2]", "value": 1260, "unit": "pg/mL"}, {"measurement": "IL-2 concentration (pg/ml), naive mouse CD4 T cells, 72 hr, hIL-27RA 5 ug/ml + mouse IL-27 10 ng/ml", "setting": "[2]", "value": 1870, "unit": "pg/mL"}, {"measurement": "IL-2 concentration (pg/ml), naive mouse CD4 T cells, 72 hr, hIL-27RA 10 ug/ml (second row) + mouse IL-27 10 ng/ml", "setting": "[2]", "value": 17500, "unit": "pg/mL"}, {"measurement": "IL-2 concentration (pg/ml), naive mouse CD4 T cells, 72 hr, hIL-27RA 10 ug/ml + mouse IL-27 10 ng/ml", "setting": "[2]", "value": 28600, "unit": "pg/mL"}, {"measurement": "block of the ability of mouse IL-27 to inhibit IL-2 production by naive CD4 T cells", "setting": "[2]", "value": 50, "unit": "%"}, {"measurement": "pKd", "setting": "[4]", "value": 9.72}, {"measurement": "koff", "setting": "[4]", "value": 0.0019, "unit": "s⁻¹"}, {"measurement": "kon", "setting": "[4]", "value": "1e+07", "unit": "M⁻¹ s⁻¹"}, {"measurement": "pKd", "setting": "[5]", "value": 9.66}, {"measurement": "koff", "setting": "[5]", "value": 0.0018, "unit": "s⁻¹"}, {"measurement": "kon", "setting": "[5]", "value": "8.1e+06", "unit": "M⁻¹ s⁻¹"}]}
